What all share (assay): flow cytometry, peptide-loaded T2 cells;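 note: binding of single-chain Fv antibody constructs, raised in XenoMouse, to peptide-pulsed T2 cells measured by flow cytometry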
(A flow cytometer gives signals particle by particle.)

Test [1] has as its target T1, DPYSL4 peptide complexed with HLA-A*02:01 on T2 cells (human).
T1 construct: whole, on cells

For test [2], the target named is T2, SLK peptide complexed with HLA-A*02:01 on T2 cells (human).
T2 construct: whole, on cells

The target in test [3] is T3, MYOF peptide complexed with HLA-A*02:01 on T2 cells (human).
T3 construct: whole, on cells

Test [4] deals with T4, COX14 peptide complexed with HLA-A*02:01 on T2 cells (human).
T4 construct: whole, on cells

In test [5] the target is T5, MB peptide complexed with HLA-A*02:01 on T2 cells (human).
T5 construct: whole, on cells

Test [6] addresses T6, ADF peptide complexed with HLA-A*02:01 on T2 cells (human).
T6 construct: whole, on cells

For test [7], the target named is T7, MAGEB2 peptide … (SEQ ID NO: 1) complexed with HLA-A*02:01 on the cell surface (human).
T7 construct: whole, on cells; also called pMAGE-HLA; MAGEB2 pMHC

In test [8] the target is T8, STXBP5 peptide complexed with HLA-A*02:01 on T2 cells (human).
T8 construct: whole, on cells

The target in test [9] is T9, KEA peptide complexed with HLA-A*02:01 on T2 cells (human).
T9 construct: whole, on cells

The target of test [10] is T10, CNDP2 peptide complexed with HLA-A*02:01 on T2 cells (human).
T10 construct: whole, on cells; also called CNPD2

B1: 18182-G8 (scFv)
scFv: EVQLLESGGGLVKPGGSLRLSCAASGFTFSSYAMNWVRQAPGKGLEWVSAISGSGGGTYYADSGKGRFTISRDNSKNTLYLQMNSLRAEDTAVYYCATGKGVHLNFDYWGQGTLVTVSSGGGGSGGGGSGGGGSELVLTQPPSVSVAPGQTARITCGGNNIGSKSVHWYQQKPGQAPVMVVYDDNDRPSGIPERFSGSNSGNTATLTISRVEAGDEADYYCQVWDSSSDHVVFGGGTKLTVL
notes: scFv in bacterial lysate, detected with anti-Flag M2
B1: the Signal/background in [1] came out at 1; in test [2] it was 1.1; in [3] it was 1; in test [4] it was 0.9; in test [5], 1.1; in test [6] it was 1. Further, the Signal/background in test [7] was determined as 289; in [8] it was 1; in [9], 0.9; in test [10], 0.9.

B2: 18182-H9 (scFv)
scFv: EVQLLESGGGLVQPGGSLRLSCAASGFTFSSHAMSWVRQAPGKGLEWVSAISGSGGGTYYADSVKARFTISRDNSKNTLYLQMNSLRAEDTAVYYCATGKGVHLGFDYWGQGTLVTVSSGGGGSGGGGSGGGGSELVLTQPPSVSVAPGQTARITCGGNNIGSKSVHWHQQKPGQAPVLVVYDDNDRPSGIPERFSGSNSGNTATLTISRVEAGDEADFYCQVWDSSSDHVVFGGGTKLTVL
notes: as for B1
Turning to B2, the Signal/background came to 1.1 in test [1]; 1.2 in test [2]; 1.1 in [3]; 0.9 in test [4]; 1 in test [5]; 1 in test [6]. The Signal/background came out at 481 in test [7], 1.1 in [8], 1 in test [9] and 1 in test [10].

B3: 18182-H12 (scFv)
scFv: EVQLLESGGGLVQPGGSLRLSCAASGFTFSSYAMSWVRQAPGKGLEWVSTISGSGGGTYYADSVKGRFTISRDNSKNTLYLQMNSLRAEDTAVYYCATGKGVHLGFDYWGQGTLVTVSSGGGGSGGGGSGGGGSELMLTQPHSVSVAPGQTARITCGGNNIGSKSVHWYQQKPGQAPVLVVYDDNDRPSGIPERFSGSNFGNTATLIISRVEAGDEADYYCQVWDSSSDHVVFGGGTKLTVL
notes: as for B1
For the molecule B3, the Signal/background stood at 1 in test [1]; 1 in test [2]; 1.2 in test [3]; 1.1 in [4]; 1.2 in test [5]; 1 in [6]. Also, the Signal/background in test [7] was determined as 298; in [8], 1; in [9], 0.9; in test [10], 1.

B4: 18179-G12 (scFv)
scFv: EVQLLESGAEVKKPGASVKVSCKASGYTFTRNGLSWVRQAPGQGLEWMGWISGYNGDTNYAQKLQGRGTMTTDTSTSTAYMELRSLRSDDTAVYYCARGRATFDYWGQGTLVTVSSGGGGSGGGGSGGGGSELVMTQSPSSLSASVGDRVTITCRASQGISNYLAWYQQKPGKVPKLLISAASTLQSGVPSRFSGSGSGTDFTLTISSLQPEDVATYYCQKYNSAPFTFGPGTKLEIK
notes: as for B1
Turning to B4, the Signal/background in test [1] was found to be 1.1; in [2] it was 1.1; in test [3], 0.9; in test [4], 1.2; in [5], 0.9; in [6], 1.1. For the same molecule, the Signal/background is 42 in test [7], 0.9 in test [8], 0.9 in [9] and 0.8 in test [10].
